Target: 非洲猪瘟病毒(African swine fever Virus, ASFV)全病毒 / 灭活非洲猪瘟病毒抗原

B1: 抗非洲猪瘟病毒的ScFv抗体VH-VLλ6 (scFv)
scFv: MEVKLVESGGGLVQPGGSLRLSCVGSGVTVTSYTVSWVRQAPGKGLEWLAGNGSSSKTTVDSDSVRGRFFISRDNSQNTAYLQMNSLRTEDTARYYCVQTIDSDCTSRLWGPGVEVVVGGGGSGGMSQTVIQEPAMSVSPGGTVTLTCAFSSATVTISNYPGWYQQTPRQPPRQLIYGLSSRPTGVPSRFSGAISGNKATLTITGAQAEDEADYFCALYNAGSRYNYMFGGGTHLTVL
B1 was tested, and the OD450nm was 1.15 OD450nm.
